Measured values from patent US20150065434A1 (MUSC FOUNDATION FOR RESEARCH DEVELOPMENT, published 2015).
Bridge positions count the residues as written; N and C are the ends. Ends that are not written are not given here.

Key:
[1] = molecular target: T1, human monoamine oxidase A (human, UniProt P21397 1-527, limits assumed); assay: cell-based or functional assay
T1 sequence (looked up): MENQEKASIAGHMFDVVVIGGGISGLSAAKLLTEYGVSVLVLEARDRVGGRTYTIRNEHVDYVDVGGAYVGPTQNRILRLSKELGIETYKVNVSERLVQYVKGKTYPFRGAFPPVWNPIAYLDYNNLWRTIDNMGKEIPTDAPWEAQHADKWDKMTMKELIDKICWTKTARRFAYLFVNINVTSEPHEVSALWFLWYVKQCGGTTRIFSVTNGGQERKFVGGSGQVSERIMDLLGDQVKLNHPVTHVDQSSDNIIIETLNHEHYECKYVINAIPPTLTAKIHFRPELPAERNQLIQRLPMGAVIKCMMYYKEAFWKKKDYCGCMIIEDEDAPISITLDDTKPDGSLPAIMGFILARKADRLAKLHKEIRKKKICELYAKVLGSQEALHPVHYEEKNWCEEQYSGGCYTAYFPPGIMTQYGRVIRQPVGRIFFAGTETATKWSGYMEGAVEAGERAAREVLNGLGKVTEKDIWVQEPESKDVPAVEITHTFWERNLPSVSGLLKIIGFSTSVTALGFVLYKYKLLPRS

[2] = molecular target: T2, human monoamine oxidase B (human, UniProt P27338 1-520, limits assumed); assay: cell-based or functional assay
T2 sequence (looked up): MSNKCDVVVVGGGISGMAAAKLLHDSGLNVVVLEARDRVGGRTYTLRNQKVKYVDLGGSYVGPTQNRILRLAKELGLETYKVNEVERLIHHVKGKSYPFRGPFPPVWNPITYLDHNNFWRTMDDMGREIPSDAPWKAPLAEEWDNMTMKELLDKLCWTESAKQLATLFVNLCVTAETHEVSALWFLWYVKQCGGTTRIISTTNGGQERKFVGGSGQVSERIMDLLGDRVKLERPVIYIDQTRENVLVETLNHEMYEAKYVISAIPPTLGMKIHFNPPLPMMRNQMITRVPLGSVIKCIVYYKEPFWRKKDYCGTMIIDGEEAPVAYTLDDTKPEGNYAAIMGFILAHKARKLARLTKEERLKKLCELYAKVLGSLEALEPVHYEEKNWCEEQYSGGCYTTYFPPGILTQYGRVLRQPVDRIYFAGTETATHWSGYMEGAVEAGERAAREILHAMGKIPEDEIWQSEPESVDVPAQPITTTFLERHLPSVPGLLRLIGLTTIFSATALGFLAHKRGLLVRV

IC50 (inhibition of MAO-A) [1]: > 100 µM | IC50 (inhibition of MAO-B) [2]: > 100 µM
B1: [Met]^4 H3 (1-21)-NH2 cyclic peptide 11, lactam bridge between Lys5 and Glu10 (peptide)
peptide: ARTMKTARKETGGKAPRKQLA-NH2
modifications: lactam 5-10
